Data from publication PMC2824034, “The indispensable N-terminal half of eIF3j/HCR1 co-operates with its structurally conserved binding partner eIF3b/PRT1-RRM and eIF1A in stringent AUG selection” (Journal of molecular biology, 2010).

B1: heIF3b-RRM_(170-274) (domain or fragment, human, UniProt P55884 170-274, looked up)
chain: GDVLKDRPQEADGIDSVIVVDNVPQVGPDRLEKLKNVIHKIFSKFGKITNDFYPEEDGKTKGYIFLEYASPAHAVDAVKNADGYKLDKQHTFRVNLFTDFDKYMT
notes: 13C/15N-labeled in some NMR samples; The limits are printed for the NMR complex; the ITC names only heIF3b-RRM; also called human eIF3b-RRM; heIF3b-RRM domain; source: E. coli BL21(DE3), purified (nickel-chelating column, TEV cleavage, second nickel column)

How the values were obtained:
Conditions in all cases: both partners purified
[1] = target: T1, heIF3j (full-length, untagged, wt) (human, UniProt O75822 1-258); assay: ITC; VP-ITC; cell: 50 μM full-length heIF3j wt or mutant; syringe: 1 mM heIF3b-RRM; 20 mM Hepes pH 7.5, 200 mM NaCl, 25°C
T1 construct: human eIF3j, full length; also called human eIF3j; wt heIF3j; source: E. coli BL21(DE3), purified (nickel-chelating column, TEV cleavage, second nickel column)

heIF3j-N51A = target: T2, heIF3j-N51A (human, UniProt O75822 1-258, N51A); assay: as above
T2 construct: human eIF3j, full length, N51A; source: E. coli BL21(DE3), purified (nickel-chelating column, TEV cleavage, second nickel column)

heIF3j-W52A = target: T3, heIF3j-W52A (human, UniProt O75822 1-258, W52A); assay: as above
T3 construct: human eIF3j, full length, W52A; source: E. coli BL21(DE3), purified (nickel-chelating column, TEV cleavage, second nickel column)

heIF3j-N51A-W52A = target: T4, heIF3j-N51A-W52A (human, UniProt O75822 1-258, N51A | W52A); assay: as above
T4 construct: human eIF3j, full length, N51A and W52A; source: E. coli BL21(DE3), purified (nickel-chelating column, TEV cleavage, second nickel column)

heIF3j-D50K-D53K-D57K = target: T5, heIF3j-D50K-D53K-D57K (human, UniProt O75822 1-258, D50K | D53K | D57K); assay: as above
T5 construct: human eIF3j, full length, D50K, D53K and D57K; source: E. coli BL21(DE3), purified (nickel-chelating column, TEV cleavage, second nickel column)

[2] = target: T1, heIF3j (full-length, untagged, wt); assay: pull-down; His6-heIF3b-RRM (wt or mutant) incubated with untagged full-length heIF3j (30 μM each) 15 min at room temperature, His-select spin columns; 50 mM sodium phosphate pH 8, 100 mM NaCl; washes with 5 mM imidazole, elution with 250 mM imidazole; SDS-PAGE, InstantBlue
heIF3b-RRM_(170-274) = target: B1; assay: NMR solution structure; 13C/15N-labeled heIF3b-RRM with heIF3j peptide or labeled peptide with heIF3b-RRM; 20 mM deuterated TRIS pH 7.5, 100 mM NaCl, 25°C; 0.7 mM RRM, 0.7-1.0 mM peptide; 32 intermolecular NOEs

T1 sequence (O75822 whole entry): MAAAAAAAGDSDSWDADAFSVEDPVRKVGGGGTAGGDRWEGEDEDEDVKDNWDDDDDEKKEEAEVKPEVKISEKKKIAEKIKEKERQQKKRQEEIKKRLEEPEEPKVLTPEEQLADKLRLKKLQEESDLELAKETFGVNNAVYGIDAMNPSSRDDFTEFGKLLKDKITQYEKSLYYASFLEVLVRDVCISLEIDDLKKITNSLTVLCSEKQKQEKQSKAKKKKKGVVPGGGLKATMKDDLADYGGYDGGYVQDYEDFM
T4 sequence (O75822 whole entry N51A/W52A): as the sequence (O75822 whole entry) above, with N51A, W52A counted along it
T2 sequence (O75822 whole entry N51A): as the sequence (O75822 whole entry) above, with N51A counted along it
T5 sequence (O75822 whole entry D50K/D53K/D57K): as the sequence (O75822 whole entry) above, with D50K, D53K, D57K counted along it
T3 sequence (O75822 whole entry W52A): as the sequence (O75822 whole entry) above, with W52A counted along it

B1
Kd [1]: 20.3 µM
Kd (heIF3j-N51A): 55 ± 0.3 µM
Kd (heIF3j-W52A): > 10000 µM
Kd (heIF3j-N51A-W52A): > 10000 µM
Kd (heIF3j-D50K-D53K-D57K): > 10000 µM

B2: His6-heIF3b-RRM-Y253A (domain or fragment, human, UniProt P55884 170-274, looked up)
chain: GDVLKDRPQEADGIDSVIVVDNVPQVGPDRLEKLKNVIHKIFSKFGKITNDFYPEEDGKTKGYIFLEYASPAHAVDAVKNADGAKLDKQHTFRVNLFTDFDKYMT
notes: human eIF3b, RNA recognition motif domain, Y253A; source: E. coli BL21(DE3), purified (nickel-chelating column)
binding result [2]: binds

B3: His6-heIF3b-RRM-I210A (domain or fragment, human, UniProt P55884 170-274, looked up)
chain: GDVLKDRPQEADGIDSVIVVDNVPQVGPDRLEKLKNVIHKAFSKFGKITNDFYPEEDGKTKGYIFLEYASPAHAVDAVKNADGYKLDKQHTFRVNLFTDFDKYMT
notes: human eIF3b, RNA recognition motif domain, I210A; source: E. coli BL21(DE3), purified (nickel-chelating column)
binding result [2]: binds

B4: His6-heIF3b-RRM-F261A (domain or fragment, human, UniProt P55884 170-274, looked up)
chain: GDVLKDRPQEADGIDSVIVVDNVPQVGPDRLEKLKNVIHKIFSKFGKITNDFYPEEDGKTKGYIFLEYASPAHAVDAVKNADGYKLDKQHTARVNLFTDFDKYMT
notes: human eIF3b, RNA recognition motif domain, F261A; source: E. coli BL21(DE3), purified (nickel-chelating column)
binding result [2]: binds

B5: heIF3j_(35-69) peptide (peptide, UniProt O75822 35-69, looked up)
peptide: GGDRWEGEDEDEDVKDNWDDDDDEKKEEAEVKPEV
notes: human eIF3j, residues 35-69, with the N-terminal acidic motif (NTA) around Trp52; 13C/15N-labeled in some NMR samples; also called heIF3j peptide; short heIF3j peptide; source: E. coli BL21(DE3), purified (nickel-chelating column, TEV cleavage, nickel column, HiTrap DEAE); not shown: His6, N-terminal, cleaved; lipoyl domain, N-terminal, cleaved
binding result (heIF3b-RRM_(170-274)): binds
